pKd: −log10 of the molar value.
Biological target: biotinylated FYCO1 peptide (human)
Test: BLI

- pKd: 5.85
Substance: GABARAP (from UniProt O95166 1-117) (natural protein)
